Ki data for one molecule are collected here from US20090099072A1 (LES LABORATOIRES SERVIER, published 2009).

One experiment addresses T1, Bcl-XL (UniProt Q07817-1 1-209).
T1 construct: also called anti-apoptotic member of the Bcl-2 protein family
In words: fluorescence polarisation competition; tracer Bak BH3 carboxyfluorescein 15 nM, Bcl-XL 100 nM. As to the method: (§1) The following reagents are mixed together in the order stated: [0089] a) competitor peptide at a final concentration of from 1 nM to 100 μM; [0090] b) fluorescent peptide ligand (Bak BH3 carboxyfluorescein) at a final concentration of 15 nM; [0091] c) anti-apoptotic member of the Bcl-2 protein family at a final concentration of 100 nM for Bcl-XL and of 1 μM for Bcl-2 and Bcl-W.
(§2) The mixture is then incubated for 30 minutes at ambient temperature and the fluorescence polarisation is determined on a Fusion apparatus (Packard) (excitation at 485 nm and reading at 530 nm). The values are given in mP (unit of fluorescence polarisation).
(Fluorescence polarisation rises when a labelled molecule tumbles more slowly, as on binding a larger partner.)

A further experiment concerns the target T2, Bcl-W (UniProt Q92843-1 1-172, limits assumed).
T2 construct: also called anti-apoptotic member of the Bcl-2 protein family
T2 sequence (looked up): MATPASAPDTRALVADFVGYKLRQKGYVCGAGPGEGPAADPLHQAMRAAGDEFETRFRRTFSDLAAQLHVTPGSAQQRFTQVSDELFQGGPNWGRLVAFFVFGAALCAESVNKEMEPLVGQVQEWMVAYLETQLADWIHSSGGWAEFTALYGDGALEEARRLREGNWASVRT
Kind of experiment: fluorescence polarisation competition; tracer Bak BH3 carboxyfluorescein 15 nM, Bcl-W 1 µM. As to the method:
as §1, §2

The next experiment concerns the target T3, Bcl-2 (UniProt P10415-1 1-211, limits assumed).
T3 construct: also called anti-apoptotic member of the Bcl-2 protein family
In words: fluorescence polarisation competition; tracer Bak BH3 carboxyfluorescein 15 nM, Bcl-2 1 µM. The method, then: as §1, §2

T1 sequence (Q07817 1-209): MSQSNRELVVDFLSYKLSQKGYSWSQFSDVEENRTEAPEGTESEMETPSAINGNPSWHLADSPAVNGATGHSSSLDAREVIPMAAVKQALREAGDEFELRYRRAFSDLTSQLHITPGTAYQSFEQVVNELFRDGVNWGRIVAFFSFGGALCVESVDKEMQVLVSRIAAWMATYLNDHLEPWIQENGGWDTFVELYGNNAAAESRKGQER
T3 sequence (P10415 1-211 limits assumed): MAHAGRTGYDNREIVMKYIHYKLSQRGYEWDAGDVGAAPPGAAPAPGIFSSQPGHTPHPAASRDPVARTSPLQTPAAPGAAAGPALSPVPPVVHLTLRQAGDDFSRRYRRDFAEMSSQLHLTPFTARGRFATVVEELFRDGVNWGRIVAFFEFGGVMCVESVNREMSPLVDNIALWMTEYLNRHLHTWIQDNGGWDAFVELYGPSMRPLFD

Usually Ki stands for the equilibrium dissociation constant of an inhibitor or competing ligand from its target. Low readings indicate higher affinity, high ones lower affinity. As to GTMENLSRRLKVTGDLFDIMSGQTDV [Beclin peptide, motif GTMENLSRRLKVTGDLFDIMSGQTDV of the Beclin protein], the Ki in the experiment with Bcl-XL turned out to be 1.15 µM; in the experiment with Bcl-W it was 7.4 µM; with Bcl-2, 1.8 µM.
